Key:
pp12_yeast GLC7 = pp12_yeast GLC7 (UniProt P32598)
nab3_yeast NAB3 = nab3_yeast NAB3 (UniProt P38996)
Sequence of UniProt P38996 (P38996 whole entry): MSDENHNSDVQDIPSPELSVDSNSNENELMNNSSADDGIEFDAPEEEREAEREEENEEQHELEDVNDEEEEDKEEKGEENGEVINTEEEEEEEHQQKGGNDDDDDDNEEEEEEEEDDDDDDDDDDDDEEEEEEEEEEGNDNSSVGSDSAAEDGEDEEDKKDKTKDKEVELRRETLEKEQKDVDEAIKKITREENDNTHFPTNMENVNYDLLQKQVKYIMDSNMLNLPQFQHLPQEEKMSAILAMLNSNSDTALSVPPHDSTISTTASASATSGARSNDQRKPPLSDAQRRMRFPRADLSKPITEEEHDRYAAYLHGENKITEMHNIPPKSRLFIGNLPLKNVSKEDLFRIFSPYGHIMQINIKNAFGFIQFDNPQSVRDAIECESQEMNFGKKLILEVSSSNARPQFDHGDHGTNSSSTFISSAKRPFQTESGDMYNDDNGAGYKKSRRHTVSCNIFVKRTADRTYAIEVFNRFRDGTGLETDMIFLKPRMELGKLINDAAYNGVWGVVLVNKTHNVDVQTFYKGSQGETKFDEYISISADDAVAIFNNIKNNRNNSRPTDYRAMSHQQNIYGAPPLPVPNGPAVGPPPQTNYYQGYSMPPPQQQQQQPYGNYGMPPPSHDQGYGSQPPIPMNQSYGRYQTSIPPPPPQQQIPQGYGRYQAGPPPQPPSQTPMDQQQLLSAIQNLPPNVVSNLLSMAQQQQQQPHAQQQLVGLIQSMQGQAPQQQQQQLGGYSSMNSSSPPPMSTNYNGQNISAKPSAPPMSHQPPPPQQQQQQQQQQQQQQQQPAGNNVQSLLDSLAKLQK

Sequence of UniProt P32598 (P32598 whole entry): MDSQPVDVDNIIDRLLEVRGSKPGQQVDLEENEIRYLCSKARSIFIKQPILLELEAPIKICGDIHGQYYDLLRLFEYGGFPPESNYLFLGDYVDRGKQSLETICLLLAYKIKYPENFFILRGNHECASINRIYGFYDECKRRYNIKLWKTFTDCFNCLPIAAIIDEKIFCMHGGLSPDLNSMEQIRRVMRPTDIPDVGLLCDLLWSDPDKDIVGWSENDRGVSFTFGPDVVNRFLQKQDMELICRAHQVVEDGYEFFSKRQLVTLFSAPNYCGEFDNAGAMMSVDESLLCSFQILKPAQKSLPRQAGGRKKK

| Substance | effect of a mutation on the interaction (pp12_yeast GLC7) | effect of a mutation on the interaction (nab3_yeast NAB3) |
| --- | --- | --- |
| Helicase SEN1 (Saccharomyces cerevisiae), Q00416 F2003A | disrupting interaction strength | with no effect |
| Helicase SEN1 (Saccharomyces cerevisiae), Q00416 K1999A | with no effect | with no effect |

Source: IntAct's records for PubMed 18342605
